{"source": "patent US20180171027A1", "about": "(Celldex Therapeutics, Inc., priority 2015, published 2018)", "molecules": {"B1": {"name": "2C2-YTE anti-HER3 antibody (antibody, human IgG1, V domains shown)", "VH": "EVQLLESGGGLVQPGGSLRLSCAASGFTFSYYYMQWVRQAPGKGLEWVSYIGSSGGVTNYADSVKGRFTISRDNSKNTLYLQMNSLRAEDTAVYYCARVGLGDAFDIWGQGTMVTVSS", "VL": "QSVLTQPPSASGTPGQRVTISCSGSLSNIGLNYVSWYQQLPGTAPKLLISRNNQRPSGVPDRFSGSKSGTSASLAISGLRSEDEADYYCAAWDDSPPGEAFGGGTKLTVL"}, "B2": {"name": "NRG2β full extracellular domain, His-tagged (ligand, UniProt O14511 112-405, looked up, not shown: small tags and cut ends)", "chain": "CYSPSLKSVQDQAYKAPVVVEGKVQGLVPAGGSSSNSTREPPASGRVALVKVLDKWPLRSGGLQREQVISVGSCVPLERNQRYIFFLEPTEQPLVFKTAFAPLDTNGKNLKKEVGKILCTDCATRPKLKKMKSQTGQVGEKQSLKCEAAAGNPQPSYRWFKDGKELNRSRDIRIKYGNGRKNSRLQFNKVKVEDAGEYVCEAENILGKDTVRGRLYVNSVSTTLSSWSGHARKCNETAKSYCVNGGVCYYIEGINQLSCKCPNGFFGQRCLEKLPLRLYMPDPKQKAEELYQKR"}, "B3": {"name": "NRG1β: purified His-tagged full extracellular domain of neuregulin isoform, recombinantly expressed by HEK293 cells (protein, UniProt Q02297 20-242, looked up)", "extracellular domain": "SGKKPESAAGSQSPALPPRLKEMKSQESAAGSKLVLRCETSSEYSSLRFKWFKNGNELNRKNKPQNIKIQKKPGKSELRINKASLADSGEYMCKVISKLGNDSASANITIVESNEIITGMPASTEGAYVSSESPIRISVSTEGANTSSSTSTSTTGTSHLVKCAEKEKTFCVNGGECFMVKDLSNPSRYLCKCQPGFTGARCTENVPMKVQNQEKAEELYQKR", "modifications": "extracellular domain His tag", "notes": "purified His-tagged full extracellular domain of neuregulin isoform, recombinantly expressed by HEK293 cells"}}, "key": {"ErbB3 [1]": {"target": "T1, ErbB3 (Homo sapiens, UniProt P21860)", "assay": "ErbB phosphorylation (Theranostics Health platform): ErbB3 activation (pErbB3)", "format": "cell-based", "parameters": "endogenous in cells; host or cells: SCCHN cell lines (Cal27, FaDu, UNC7, SCC61 and others)", "details": "Cal27 cells, similar results in FaDu", "protocol": "ErbB phosphorylation was measured using the Theranostics Health platform."}, "ErbB3 [2]": {"target": "T1, ErbB3"}, "ErbB3 [3]": {"target": "T1, ErbB3", "assay": "cell-based or functional assay"}, "ErbB3 [4]": {"target": "T1, ErbB3", "assay": "cell-based or functional assay", "remark": "listed apart in the source"}, "ErbB3 [5]": {"target": "T1, ErbB3", "assay": "ErbB3 phosphorylation ELISA, titration of purified NRG proteins on T47D cells", "format": "cell-based", "parameters": "endogenous in cells", "protocol": "Genes encoding the full extracellular domains of each NRG gene and isoform (NRG1α, NRG1β, NRG2α, and NRG2β) were modified to encode a signal peptide at their 5′ end, in order to induce secretion, and a His-tag at their 3′ end. Constructs were transfected into HEK293 cells and conditioned media was treated with NaCl to a final concentration of 0.5 M. NRG-containing media was purified by NiNTA chromatography and eluted with stepwise increases in imidazole in a phosphate buffer containing 0.5 M NaCl. NRG-containing fractions were pooled and further purified by size-exclusion chromatography with a mobile phase consisting of a phosphate-based buffer with 0.5 M NaCl. Purified NRG proteins were titrated on T47D breast cancer cells (which naturally express all ErbB receptors) for 10 minutes at 37° C. ErbB3 phosphorylation was measured by ELISA."}}}
{"molecule": "pertuzumab: anti-ErbB2 monoclonal antibody [reference compound]", "values": [{"measurement": "inhibiting or blocking EGF-stimulated activation of ErbB3", "setting": "ErbB3 [1]; presence of EGF", "value": "neither pertuzumab nor 2C2-YTE were capable of inhibiting or blocking"}, {"measurement": "activation of ErbB3", "setting": "ErbB3 [1]; presence of NRG", "value": "blocked activation"}]}
{"molecule": "NRG1β full extracellular domain, His-tagged (from UniProt Q02297 20-242) (ligand)", "values": [{"measurement": "EC50 (read off the curve), ErbB3 phosphorylation in T47D cells (ELISA) [panel B]", "setting": "ErbB3 [2]", "value": 1, "unit": "nM"}, {"measurement": "potency of ErbB3 phosphorylation relative to the other NRG isoforms, T47D cells", "setting": "ErbB3 [3]", "value": 10, "unit": "fold"}]}
{"molecule": "B1", "values": [{"measurement": "pY-H3 (VeraTag phosphorylated ErbB3), 4213 non-cancerous skin cell line, 2C2-YTE treatment", "setting": "ErbB3 [4]", "value": 0.6}, {"measurement": "pY-H3 (VeraTag phosphorylated ErbB3), 4213 non-cancerous skin cell line, control IgG1 treatment (baseline for 2C2-YTE)", "setting": "ErbB3 [4]", "value": 0.5}, {"measurement": "pY-H3 (VeraTag phosphorylated ErbB3), CAL27 cells, 2C2-YTE treatment", "setting": "ErbB3 [4]", "value": 0.6}, {"measurement": "pY-H3 (VeraTag phosphorylated ErbB3), CAL27 cells, control IgG1 treatment (baseline for 2C2-YTE)", "setting": "ErbB3 [4]", "value": 4.6}, {"measurement": "pY-H3 (VeraTag phosphorylated ErbB3), SCC35 cells, 2C2-YTE treatment", "setting": "ErbB3 [4]", "value": 0.4}, {"measurement": "pY-H3 (VeraTag phosphorylated ErbB3), SCC35 cells, control IgG1 treatment (baseline for 2C2-YTE)", "setting": "ErbB3 [4]", "value": 1.1}, {"measurement": "pY-H3 (VeraTag phosphorylated ErbB3), SCC61 cells, 2C2-YTE treatment", "setting": "ErbB3 [4]", "value": 0.6}, {"measurement": "pY-H3 (VeraTag phosphorylated ErbB3), SCC61 cells, control IgG1 treatment (baseline for 2C2-YTE)", "setting": "ErbB3 [4]", "value": 6.1}, {"measurement": "pY-H3 (VeraTag phosphorylated ErbB3), UNC7 cells, 2C2-YTE treatment", "setting": "ErbB3 [4]", "value": 0.4}, {"measurement": "pY-H3 (VeraTag phosphorylated ErbB3), UNC7 cells, control IgG1 treatment (baseline for 2C2-YTE)", "setting": "ErbB3 [4]", "value": 3.5}, {"measurement": "pY-H3 (VeraTag phosphorylated ErbB3), UNC10 cells, control IgG1/2C2-YTE (one value given)", "setting": "ErbB3 [4]", "value": 0}, {"measurement": "pY-H3 pharmacodynamic (PD) ratio, 4213 non-cancerous skin cell line", "setting": "ErbB3 [4]", "value": 1}, {"measurement": "pY-H3 pharmacodynamic (PD) ratio, CAL27 cells", "setting": "ErbB3 [4]", "value": 7.5}, {"measurement": "pY-H3 pharmacodynamic (PD) ratio, SCC35 cells", "setting": "ErbB3 [4]", "value": 2.8}, {"measurement": "pY-H3 pharmacodynamic (PD) ratio, SCC61 cells", "setting": "ErbB3 [4]", "value": 10.6}, {"measurement": "pY-H3 pharmacodynamic (PD) ratio, UNC7 cells", "setting": "ErbB3 [4]", "value": 8.4}, {"measurement": "pY-H3 pharmacodynamic (PD) ratio, UNC10 cells", "setting": "ErbB3 [4]", "value": 0}]}
{"molecule": "B2", "values": [{"measurement": "EC50 (read off the curve), ErbB3 phosphorylation in T47D cells (ELISA) [panel B]", "setting": "ErbB3 [2]", "value": 7, "unit": "nM"}]}
{"molecule": "B3", "values": [{"measurement": "potency of ErbB3 activation relative to the other NRG isoforms", "setting": "ErbB3 [5]", "value": "approximately 10 fold"}]}
